Numbered stars: 1 amine (or outer) side, 2 acyl side, 3 side chain; on linkers, the order of the positions; unused ones are H or OH. Bridge positions count the residues as written; N and C are the ends. Square brackets hold non-standard residues; d marks the D form. Peptide text beside a SMILES is read from it. I, II: the chains in the order shown. * marks the point of attachment. Hexanoyl(6-succinimido-3yl) = O=C1CC([*:1])C(=O)N1CCCCCC(=O)[*:2]; Dolaproine = CO[C@@H]([C@@H]1CCCN1)[C@@H](C)C(=O)O; Dil = CC[C@H](C)[C@H](NC)[C@@H](CC(=O)O)OC; PABC = O=C(OCc1ccc(N[*:1])cc1)[*:2]; X1 = C[C@@H](N*)[C@@H](O)c1ccccc1; Cit = NC(=O)NCCC[C@H](N)C(=O)O; NMeV = CN[C@H](C(=O)O)C(C)C
Assays:
[1] = test system: breast cancer cell line HCC1954; test: Cytotoxicity test of conjugate LDC10H; format: cell-based, human; conditions: HCC1954, incubated 15-30 min, then 2-3 days
Protocol: (§1) Culture medium: RPMI 1640 Medium, no folic acid
(§2) 1) human lung cancer cell H1299, ovarian cancer cell SKOV3, breast cancer cell line HCC1954, and human lung cancer cell H460 were incubated at 37° C., 5% CO2 in RPMI 1640 medium containing 10% fetal bovine serum, the cells were passaged every 2-3 days.
(§3) 2) human lung cancer cell H1299, ovarian cancer cell SKOV3, breast cancer cell line HCC1954, and human lung cancer cell H460 were plated at 1×10^3 cells per well (96-well plate) and incubated for 8-12 h at 37° C., 5% CO2.
(§4) 3) Stock solutions of LDC conjugates or control were prepared in PBS solution. 100 μL/well of serially diluted LDC conjugates or control was added to the cells in the plate and incubated for 15-30 min at 37° C., 5% CO2. The culture medium in the wells was then removed by aspiration and the cells were incubated in fresh culture medium without conjugates (150 μL/well) for 2-3 days at 37° C., 5% CO2.
(§5) 4) CellTiter 96® Aqueous One Solution Cell Proliferation Assay (Promega) was added to each well to measure the amount of […] cells, and the plate was incubated in an incubator for 1 h at 37° C., 5% CO2.
(§6) 5) the plate was read at 490 nm on a microplate reader, and the cell survivals were compared for cells with or without the treatment of LDC conjugates. The LDC drug concentrations that are required for 50% cell death (IC50 values) were determined.

[2] = test system: ovarian cancer cell SKOV3; test: Cytotoxicity test of conjugate LDC10H; format: cell-based, human; conditions: SKOV3, incubated 15-30 min, then 2-3 days
Protocol: as §1, §2, §3, §4, §5, §6

[3] = test system: human lung cancer cell H1299; test: Cytotoxicity test of conjugate LDC10H; format: cell-based; conditions: H1299, incubated 15-30 min, then 2-3 days
Protocol: as §1, §2, §3, §4, §5, §6

[4] = test system: human lung cancer cell H460; test: Cytotoxicity test of conjugate LDC10H; format: cell-based; conditions: H460, incubated 15-30 min, then 2-3 days
Protocol: as §1, §2, §3, §4, §5, §6

Transplanted H460 tumor = test: Inhibitory assay of conjugates LDC10B and LDC10H against xenograf tumors; format: in vivo, nude mice
Protocol: (§7) Animal: nude mice, aged 6-8 weeks, female
(§8) 1) human large cell lung cancer cell H460, human lung cancer cell A549, ovarian cancer cell SKOV3, and breast cancer cell line HCC1954 were incubated at 37° C., 5% CO2 in IMDM medium containing 10% fetal bovine serum, the cells were passaged every 2-3 days.
(§9) 2) generation of tumors: 7×10^6 tumor cells were injected subcutaneously into the back of nude mice, and the mice were grouped for treatment after the tumor sizes were as large as about 100-200 mm^3.
(§10) 3) treatment: 3 mice/group, treated with LDC10B, LDC10H, as well as controls MMAE and PBS with doses of 5 and 10 mg/kg every 5 days, three injections.
(§11) 4) the physical performance, body weights and tumor sizes of the animals were monitored. The number of animal death was recorded during the experiment.

[5] = test system: Transplanted HCC1954 tumor; test: as above; format: in vivo, nude mice; conditions: 10 mg/kg
Protocol: as §7, §8, §9, §10, §11

[6] = Detection of conjugate concentrations in xenograf tumor models (serum, anti-MMAE ELISA); format: in vivo, nude mice; conditions: 10 mg/kg, peritoneal injection
Protocol: as §7
1) Human ovarian cancer cell SKOV3 and breast cancer cell line HCC1954 were incubated at 37° C., 5% CO2 in IMDM medium containing 10% fetal bovine serum, the cells were passaged every 2-3 days.
2) generation of tumors: 7×10^6 tumor cells were injected subcutaneously into the back of nude mice, and the mice were grouped for treatment after the tumor sizes were as large as about 100˜200 mm^3.
3) treatment: 3 mice/group, 10 mg/kg, peritoneal injection.
4) blood collection: the time for blood collection before treatment was set as 0, blood was collected at 20 min, 2 h, 4 h, and 24 h after treatment. The blood was centrifuged to collect serum, which was frozen and preserved.
5) Detection: the total amount of MMAE, LDC10B, LDC10H, as well as the MMAE metabolites of LDC10B and LDC10H in serum were detected by mice anti-MMAE ELISA kit.

SMILES: CC[C@H](C)[C@@H]([C@@H](CC(=O)N1CCC[C@H]1[C@H](OC)[C@@H](C)C(=O)N[C@H](C)[C@@H](O)c1ccccc1)OC)N(C)C(=O)[C@@H](NC(=O)[C@H](C(C)C)N(C)C(=O)OCc1ccc(NC(=O)[C@H](CCCNC(N)=O)NC(=O)[C@@H](NC(=O)CCCCCN2C(=O)CC(SC[C@H](NC(=O)[C@H](CCCNC(=N)N)NC(=O)[C@H](CCCNC(=N)N)NC(=O)[C@H](CCCNC(=N)N)NC(=O)[C@H](CCCNC(=N)N)NC(=O)[C@H](CCCNC(=N)N)NC(=O)[C@H](CCCNC(=N)N)NC(=O)[C@H](CCCNC(=N)N)NC(=O)[C@H](CCCNC(=N)N)NC(=O)[C@@H](N)CCCNC(=N)N)C(=O)N[C@@H](CCCCN)C(=O)N[C@@H](CCC(=O)O)C(=O)N[C@@H](Cc3ccccc3)C(=O)N[C@@H](CC(C)C)C(=O)N[C@@H](Cc3c[nH]cn3)C(=O)N3CCC[C@H]3C(=O)N[C@@H](CO)C(=O)N[C@@H](CCCCN)C(=O)N[C@H](C(=O)N[C@@H](CC(=O)O)C(=O)N[C@@H](CC(C)C)C(=O)N3CCC[C@H]3C(=O)N[C@@H](CCCNC(=N)N)C(=O)O)C(C)C)C2=O)C(C)C)cc1)C(C)C (stereo partly shown) [LDC10H] (I: H-RRRRRRRRRCKEFLHPSKVDLPR-OH / II: V[Cit][PABC][NMeV]V[Dil][Dolaproine]-X1; linker I:10-II:N via Hexanoyl(6-succinimido-3yl))
- IC50 [1]: 36 nM
- IC50 [2]: 73.8 nM
- IC50 [3]: 90.4 nM
- IC50 [4]: 85.3 nM
- Body weight of mice (Transplanted H460 tumor; 5 mg/kg, Before Injection): 23.29 g
- Body weight of mice (Transplanted H460 tumor; 5 mg/kg, Five days after Injection 1): 24.26 g
- Body weight of mice (Transplanted H460 tumor; 5 mg/kg, Five days after Injection 2): 23.14 g
- Body weight of mice (Transplanted H460 tumor; 5 mg/kg, Five days after Injection 3): 23.22 g
- Body weight of mice (Transplanted H460 tumor; 10 mg/kg, Before Injection): 23.37 g
- Body weight of mice (Transplanted H460 tumor; 10 mg/kg, Five days after Injection 1): 24.39 g
- Body weight of mice (Transplanted H460 tumor; 10 mg/kg, Five days after Injection 2): 22.12 g
- Body weight of mice (Transplanted H460 tumor; 10 mg/kg, Five days after Injection 3): 23.61 g
- Body weight of mice ([5]; Before Injection): 22.05 g
- Body weight of mice ([5]; Five days after Injection 1): 23.32 g
- Body weight of mice ([5]; Five days after Injection 2): 22.87 g
- Body weight of mice ([5]; Five days after Injection 3): 22.51 g
- Concentration in serum ([6]; 20 min): 0.77 µg/mL
- Concentration in serum ([6]; 2 h): 0.58 µg/mL
- Concentration in serum ([6]; 4 h): 0.196 µg/mL
- Concentration in serum ([6]; 24 h): 0 µg/mL
- detected in serum at 24 h after treatment (in words) ([6]; 24 h): none
- Concentration in serum ([6]; Before Treatment): 0 µg/mL

From patent US11571480B2, “Multi-ligand drug conjugates and uses thereof” (priority 2015, dated 2023)
